B1: NLV2 TCR alpha chain (CDR3α only) (parent)
chain: AGPMKTSYDKVI

The variants in this experiment derive from B1. Put plainly: T-Switch: Jurkat TCRβ−/− cells expressing a CDR3 saturation-mutagenesis library, stained with two peptide-HLA-A*02:01 tetramers (original and novel peptide) plus anti-CD3, FACS-sorted into four gates, gDNA sequenced. The following applies: tetramers 1 µg/mL, 30 min on ice, SP, DP and SW gates expanded about 10 days between rounds ('two to three rounds of selection' in the Methods), unresolved parent, parent is a CDR3 fragment, scale: fold enrichment, numbering: sequential-on-construct, sequence starts at 1.

The mark [1] stands for this setting: with both tetramers (double-negative gate, binds neither): HLA-A*02:01 with … and with …, gate DN: OPPOSITE: higher = more of the variant in the gate that binds neither peptide = LESS binding (or no expression; inferred). Fold enrichment of the CDR3 variant in one FACS gate of a two-tetram.
The mark [2] stands for this setting: with both tetramers (double-positive gate): HLA-A*02:01 with … and with …, gate DP: higher = more of the variant in the gate that binds both peptides. Fold enrichment of the CDR3 variant in one FACS gate of a two-tetramer stain. SP/DP/SW gates were expanded and re-sorted bef.

For […] (CDR3 as printed); M4I derived by comparing it with the table's wild-type CDR3 AGPMKTSYDKVI, the enrichment under setting [1] stood at 0.318 and the enrichment under setting [2] is 0.

Consider […] (CDR3 as printed); S7A derived by comparing it with the table's wild-type CDR3 AGPMKTSYDKVI, for which the enrichment is 0.945 under setting [1] and 0 under setting [2].

Turning to […] (CDR3 as printed); V11T derived by comparing it with the table's wild-type CDR3 AGPMKTSYDKVI, the enrichment was found to be 1.12 under setting [1] and 0 under setting [2].

For […] (CDR3 as printed); S7R derived by comparing it with the table's wild-type CDR3 AGPMKTSYDKVI, the enrichment runs as follows: under setting [1], 0.927; under setting [2], 0.

For […] (CDR3 as printed); P3W derived by comparing it with the table's wild-type CDR3 AGPMKTSYDKVI, the enrichment is, setting by setting: under setting [1], 0.887; under setting [2], 0.

In the case of […] (CDR3 as printed); P3Y derived by comparing it with the table's wild-type CDR3 AGPMKTSYDKVI, the enrichment under setting [1] is 1.08 and the enrichment under setting [2] came out at 0.

Turning to […] (CDR3 as printed); P3A derived by comparing it with the table's wild-type CDR3 AGPMKTSYDKVI, the enrichment turned out to be 1.21 under setting [1] and 0 under setting [2].

As to […] (CDR3 as printed); S7F derived by comparing it with the table's wild-type CDR3 AGPMKTSYDKVI, the enrichment is, setting by setting: under setting [1], 1.22; under setting [2], 0.

On to […] (CDR3 as printed); T6Q derived by comparing it with the table's wild-type CDR3 AGPMKTSYDKVI, for which the enrichment under setting [1] was 1.14 and the enrichment under setting [2] worked out at 0.

For […] (CDR3 as printed); Y8T derived by comparing it with the table's wild-type CDR3 AGPMKTSYDKVI, the enrichment under setting [1] is 1.15 and the enrichment under setting [2] was 0.

Regarding […] (CDR3 as printed); V11E derived by comparing it with the table's wild-type CDR3 AGPMKTSYDKVI, the enrichment runs as follows: under setting [1], 1.34; under setting [2], 0.

Take […] (CDR3 as printed); S7P derived by comparing it with the table's wild-type CDR3 AGPMKTSYDKVI: the enrichment amounted to 0.995 under setting [1] and 0 under setting [2].

As to […] (CDR3 as printed); Y8I derived by comparing it with the table's wild-type CDR3 AGPMKTSYDKVI, the enrichment worked out at 1.11 under setting [1] and 0 under setting [2].

Take […] (CDR3 as printed); M4P derived by comparing it with the table's wild-type CDR3 AGPMKTSYDKVI: the enrichment is, setting by setting: under setting [1], 1; under setting [2], 0.

For the variant […] (CDR3 as printed); S7Y derived by comparing it with the table's wild-type CDR3 AGPMKTSYDKVI, the enrichment under setting [1] was 0.999 and the enrichment under setting [2] turned out to be 0.

Consider […] (CDR3 as printed); T6K derived by comparing it with the table's wild-type CDR3 AGPMKTSYDKVI, for which the enrichment came out at 1.04 under setting [1] and 0 under setting [2].

As to […] (CDR3 as printed); P3R derived by comparing it with the table's wild-type CDR3 AGPMKTSYDKVI, the enrichment under setting [1] amounted to 1.32 and the enrichment under setting [2] was determined as 0.

Regarding […] (CDR3 as printed); Y8S derived by comparing it with the table's wild-type CDR3 AGPMKTSYDKVI, the enrichment was 0.528 under setting [1] and 0 under setting [2].

On to […] (CDR3 as printed); V11D derived by comparing it with the table's wild-type CDR3 AGPMKTSYDKVI, for which the enrichment reads like this: under setting [1], 0.904; under setting [2], 0.

As to […] (CDR3 as printed); S7E derived by comparing it with the table's wild-type CDR3 AGPMKTSYDKVI, the enrichment worked out at 1.01 under setting [1] and 0 under setting [2].

Take […] (CDR3 as printed); S7N derived by comparing it with the table's wild-type CDR3 AGPMKTSYDKVI: the enrichment is, setting by setting: under setting [1], 1.31; under setting [2], 0.

Consider […] (CDR3 as printed); Y8Q derived by comparing it with the table's wild-type CDR3 AGPMKTSYDKVI, for which the enrichment is, setting by setting: under setting [1], 0.629; under setting [2], 0.

Turning to […] (CDR3 as printed); Y8G derived by comparing it with the table's wild-type CDR3 AGPMKTSYDKVI, the enrichment under setting [1] was determined as 1.22 and the enrichment under setting [2] came out at 0.

On to […] (CDR3 as printed); S7L derived by comparing it with the table's wild-type CDR3 AGPMKTSYDKVI, for which the enrichment by setting is: under setting [1], 1.06; under setting [2], 0.

For […] (CDR3 as printed); Y8C derived by comparing it with the table's wild-type CDR3 AGPMKTSYDKVI, the enrichment was determined as 1.27 under setting [1] and 0 under setting [2].

For […] (CDR3 as printed); T6S derived by comparing it with the table's wild-type CDR3 AGPMKTSYDKVI, the enrichment was 1.05 under setting [1] and 0 under setting [2].

Take […] (CDR3 as printed); P3Q derived by comparing it with the table's wild-type CDR3 AGPMKTSYDKVI: the enrichment is, setting by setting: under setting [1], 1.16; under setting [2], 0.

For the variant […] (CDR3 as printed); S7V derived by comparing it with the table's wild-type CDR3 AGPMKTSYDKVI, the enrichment runs as follows: under setting [1], 0.928; under setting [2], 0.
